Test results taken from IntAct's records for PubMed 31147388.

B1: Protein tost-1 (Caenorhabditis elegans), Q18490 (parent)
chain: MTTAIQYQVIPLADREHSNKVASILENKYKTATNKRITLNERFGVLEKGYTIQATEPETVKNDSDVFFVVHDRNLNSKKEFVENYLAKNPIVNSPEKVFEEEDKENAPTKKAVLKPSSTDEKKLTSSDIYIQEITRSILQSV
partner: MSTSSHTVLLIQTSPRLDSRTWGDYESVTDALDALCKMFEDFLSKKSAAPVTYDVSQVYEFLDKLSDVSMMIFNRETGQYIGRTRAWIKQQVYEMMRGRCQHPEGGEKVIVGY
B2: Protein pid-1 (Caenorhabditis elegans), Q19541 (parent)
chain: MSAKREFSHITLASTPFKKRIDQNSLKTDSDIEKDTNIAHKCAERFNYNTNLHRKVTLSDRFELAALGYEMKAKPRTIIEKHNDCDEFHFIYRKEKKNDYGTGSPLSAGLSLSNPLPAGRGFLSPAIQNTSNQFTFSGSPRITPQKHTPVSANHKPARSIFDDIPSNIA
partner: B1 partner

Variants of: B1
Conditions: with erh2_caeel erh-2, Q20057

Row | Variant | effect of a mutation on the interaction
1 | MTTAIQYQVIPLADREHSNKVASILENKYKTATNKRITLNECFGVLEKGYTIQATEPETVKNDSDVFFVVHDRNLNSKKEFVENYLAKNPIVNSPEKVFEEEDKENAPTKKAVLKPSSTDEKKLTSSDIYIQEITRSILQSV [R42C] | disrupting interaction strength

Variants of: B2
Conditions: with erh2_caeel erh-2, Q20057

Row | Variant | effect of a mutation on the interaction
2 | MSAKREFSHITLASTPFKKRIDQNSLKTDSDIEKDTNIAHKCAERFNYNTNLHRKVTLSDCFELAALGYEMKAKPRTIIEKHNDCDEFHFIYRKEKKNDYGTGSPLSAGLSLSNPLPAGRGFLSPAIQNTSNQFTFSGSPRITPQKHTPVSANHKPARSIFDDIPSNIA [R61C] | decreasing interaction strength

Variants of: B2
Conditions: with erh2_caeel erh-2, Q20057
Remark: another data set of the same source

Row | Variant | effect of a mutation on the interaction
3 | MSAKREFSHITLASTPFKKRIDQNSLKTDSDIEKDTNIAHKCAERFNYNTNLHRKVTLSDCFELAALGYEMKAKPRTIIEKHNDCDEFHFIYRKEKKNDYGTGSPLSAGLSLSNPLPAGRGFLSPAIQNTSNQFTFSGSPRITPQKHTPVSANHKPARSIFDDIPSNIA [R61C] | disrupting interaction strength
